Assay: soluble fraction after stress (log2 fold change); higher = more stays soluble; pooled small domains, quantitative proteomics
Details: stress: pH 4
Outline: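 High-throughput quantitative proteomics was run on pooled custom libraries of small protein domains following pH 4 stress. Fold changes are on a log2 scale; higher values mean more of a domain remained soluble. The fold change in soluble amount is taken as a measure of aggregation propensity.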

| Sequence | soluble fraction (log2) |
| --- | --- |
| HMDSQKKNETLSSTADEIIKNYAGKRDLSEESMEQLEQFQKDMRGADVNIFTAAQIRMLDQIFQENLH | 0.0679 |
| HMKQLVVVPRVVSLSEGKAREDVGDRGLVVDRVEMDTLRTPYENTVTRQEPAADSRVPVGTRVTLWISPGV | -0.0648 |
| HMTMSFSELLRGLRKSRGMSQAELATAVGLSQAQVSQIETGKLLPSPELIEKLAALYGIALGSA | 0.0703 |
| HMQPRYMLIKTAILDAIERGEMKPGSQVPSENQLAQQHNVSRMTARRALSEMVDDGILMRSQGIGTFVSD | -0.591 |
| HMTREAILDTAEELLQRRGYNAFSYHHIAVQLGIRNAAIHYHFPAKEDLGIELVSRFRIRLAE | -0.238 |
| HMSLGSQEYSIGFRNGDSTYHYIDKALKELAYEGVIDELSTQWFGSSRAVDFPSQKDALSELGYIA | 0.22 |
| HMDEPADVAIFDGFRQMSEDELKKLYESLNLAMTFKDFLHIQNYFKNEENREPSVTEIRVLDTYWSDH | -0.321 |
| HMHITSFTIKQADQIVGTTPVREQAVGAAKARAQQTGTPVSVIAYLDTGEEREVIIHPDGTN | -0.328 |
| HMVRKIQAKLVLRLHAQGLSGRAIARSQGMSRRSVSDVLDAARAVGVGWDDVTGKTDGEVYALLFPGRG | 0.0261 |
| HMTMVKYRYLTDGELKEFEEEFKHFLIANGLHSEEWERLNNEDSNKAIEVVALFSNLILDKV | -1.06 |
| HMVNHVGITVSNLERSIQFYEALTGKKIANQDTIGGKRMAQTQGLADTLIKYANLHLDNLNIDLLEYVE | -0.448 |
| HMPGDIRKAAILLMSLPREQAAQVLARLDPKQVEAVTIEIARLGTVTPDEQEQALKEFSQANPA | -0.141 |
| HMPRDQQENIYLLEKGKRLYEEHLGDQRQIIGHRIMIFERILESQDHAQIRRAQSEFAEFLSHYDG | 0.111 |
| HMLHIKKGDTVIVNAGESKGQQGKVLEVLVGKERAIVEGVNMVSKHTKPNAKNPQGGIVKKEAPIHISNLQ | 0.0699 |
| HMKVSAEEQNILDALQAAGGYLPFHDKSNPEEIYEAFGISKKTFKMIIGSLYKQQKINLTQTGIQLII | -0.637 |
| HMNEISLKEITIEEDHPWRDKKIKELDLKEHILVAMIRRKDQDIIPNGETKIYKDDILVIYD | -1.73 |
| HMTDIVPNLIGKSLKDAIQSVEKSNLKAIFDGHGIVVSQQPRPGSPIPARKIMKVTLSPDYR | 0.135 |
| HMTNSTGWSKSGGTQVTIREGETIYNLSRRYGVPAKSIMEANGIADATAVRAGQRISIPTYSY | 0.22 |
| HMGQVLEGVFRRKANGKNAFIPDGGGEPILVAERNSAHAMDGDRVKATLLARRKHHVREAQVTEILKRSSK | 0.0841 |
| HMKRDYELPAFIETYLKKNHVAIDTKSAAMIAEHIGADLSRLISELDKVMISLPDDDRRVTPDVVEREI | -0.436 |
| HMGVARGQAQVTTRQHVVQPGETLYQISKQYGVTVAEILRYNADIEDNTVKVGQTLQIPTPLP | -0.206 |
| HMSIQQEATGNRIRELLLNNGYTVKDIQEVMGFENPQAVYKWLSGKSLPNLDNLLILSKVLHTSIEDILV | -1.09 |
| HMRMTLKNKVEDIVHILRKDKQTSLSAILGDNTDRIQTIVVFLAILELVKQHLIKTDQNANFGDINLFPED | 0.134 |
| HMNYHDTLSYLMDAFGGADNLQKLLGVGPSALSNYRRREHLPLNQARKLSNIAPEFGFNLDPYTLKISVID | -0.588 |
| HMVSNRMVYSDFQQKWINNQVESINVNADKMTIEVTTQDEKKYTVYAPSSMIEFLNEQYPKDDIKIEYVAP | -0.94 |

| Sequence | soluble fraction (log2) |
| --- | --- |
| HMNNPNFAIQKYVTGSDIKRVRKTLRLTQKKFAELVGVSKATMERWETKEDKITGPVVLLLKILEDHPEY | -0.0904 |
| HMNVGKRLKSLREKYKFSLEEVAKKIKSSAGAISRYENNERKINSESLIRLSNLYNVSPEYILYG | 0.391 |
| HMEPSAQEIANKLLGHVKSLGLPITGLSISYNSTSDLATVRGQVQSQADREKIILAVGNVDHVAKVDDQLT | -0.0387 |
| HMKELFETLPDVLDAKLLASALSISKAGAYQLLNRPDFPTLQVGGWKLVTKQKLALWMEQHTN | -0.511 |
| HMKALRNQDVVVGKPLAMAVYDQHGVLLLGRGHVVISESQRQQLLERGFSIDAEQLGRLRAAIEATQRV | 0.0921 |
| HMGGGVERLTPRQREVLGYMAEGRSNSWIAGAIGFSEKAVVQHTSKIYDALGLAVDADDHRRVLAVLRYLT | -1.07 |
| HMSEATTVNYKYAVTISDLRIRKGPGTNYGSVGYTGKGVFTIVAEKGGWGKLKSGAGWISLNSKYGHKVS | -0.314 |
| HMEGNAFASTGDPEADILDITAVHPMRRDAVEELLARSGAEWSLVEGMLRDGKITMAPWEGEEFFIRS | -1.35 |
| HMYAGTVTQVKNNKVMLEFDGETVNVGDQFFILNSDGKKVAIVEITAAKNKKALANVLKGKAVVDGTTQAK | -0.404 |
| HMITGREMDVLEALWSSEKPLVASDIPKMKPSLSISSVQLALRNLVKKKLVEVADIVYSGTVLSRSYRP | -0.477 |
| HMYYNDEELDGYRGTPSDAYSDNAVEEFREVLYTLREDEVSGWVRSLQLRGIFLPDAIKDETFLI | -1.84 |
| HMNLVRQHTDYAFRLLVALSQAPGKPISTRTLASAADVPYQFASKIMQKLHEEGLVESVMGPFGGFRLVQ | -0.419 |
| HMGQAVTVPELKGLSFDEAIEKLDDAGLKYEVVDSNYVEDMKPGTVFETLPEAGSRVKPRRIVFLTINAF | -0.689 |
| HMLTRRQSEVLDFIRQFAESESMPPTLHEIAKGMGFSSDNAARDHVRALARKGAIDLVGGTSRGIRLR | -0.331 |
| HMSQNVQDVFLNHVRKSKNPVTVFLVNGVKLQGIITWFDNFSVLLRREGHTQLVYKHAISTVMPSGPIQLF | 0.22 |
| HMETFNMTQKEITRLRVINQAIDKVITIREAAELLGLSERQVIRLKGGVEKFGPAFIIHKNRGRKP | -0.265 |
| HMTLALKQGSTGSTVKQVQQKLKNWGYYSGAVDGIFGSGTRKAVVLFQKRNKLTADGIVGSKTLEALGIYV | 0.0782 |
| HMNKKETRLNNFIHFLKIRNSITVKEMANHLNVSEMTVRRDIKELTADHTINFENGKIMFNPQSSL | 0.33 |
| HMSAAMTESVLDGIPGLGATRKAALLAHFGSVRKLRAATSEQVREVPGIGPRLAETILATLHEP | 0.0277 |
| HMTEDNDLETIAYDILKERNLNNININVKNGVLNIYGKTETLKEKREIEKILSSLNVSKINNLIKI | ≥ 0.43 |
| HMDPLGGFTKGDVDMDGRVAVNDAVMVLKNAIKLMELDTQQLMLADADNDGKITVNDAVMILKKAIKLID | -0.478 |
| HMQISLAAARVNAGLTQEEVAKAMKVGKQTIVSWEKGNSEPKMSQSRELSELYKIPLDYIFYP | 0.138 |
| HMIANNFDEFVEKVSEAERKALNMPAGQEMTQKLLEMKLAANPNLTPEEWQRTKSEFMTFLFAVFVRE | -1.02 |
| HMDEDTWKLYKRAYKKYYARYMKGNMSEEAFKTWAAQAARDRDAAIEQVKAALDENLKAQVIERLKEELNR | 0.22 |
| HMVDYSMEDSVWNNKKEHVNEWFDANPEHEGRRVIVDGLFAIGDAQPDLRKRHWSSISVVFADLDNSPIG | -1.01 |

| Sequence | soluble fraction (log2) |
| --- | --- |
| HMAEKGIGRVNADWLNMRTSPGGEVLTVLKQGTELQVIGRSGSWLEVQHGNEQGYVSSRYITIQP | 0.132 |
| HMVNIPEIAKKFGKSTSEVFEQIQIGEKHEMEHTNDPKKARKIALDHLSDDMDYYKKLKKLG | ≥ 0.43 |
| HMGGWEEGVYVVREGDTLSDIVHDAVKGTEIHPDFILNAIVRVNPSAFVRGNPSWMLAGKKIK | -0.373 |
| HMINLTKVGNFISIIKLQQIWTIDELLKKVDINYDELLYLLTILSDIYSKNGEYFFDFDIDAENNKILFNN | -0.3 |
| HMDKGQRGWINLVSVPTARVIIDGYDTGHETPLYGYEVERGKRKVTLISLDGTYERTYEIRIEPGTTTRVR | -0.947 |
| HMTFAEADAQYEVIKQQYLAGALDEEQFDEQLHRLMVLDDGGLWWAKSRENGSWHYYDPDREDWIAATP | -0.995 |
| HMFMLQAKRVPVSELENFKGIVAEDVVSQSRALILPRGSNLSWLSSSAMQNLSTRLALEGVESISIYL | -1.8 |
| HMEKDKGTILKEARIKKGLTQEQLANNINYTRQYISKWENNISLPKDIQTLKKISNLLSIPLKELLPEDYL | 0.0442 |
| HMVMIPDLVGETIEDAKDILEGLGFEVEVRSEFPESDWGRPFARVTSLSPSAGQEVAKGTLVIIRSF | -0.144 |
| HMSRREEALIALAQRVARQVARTKQPVTLEPMPANERRVIHVALRDNPDVETRSSGEGDQRRVTVYPRQ | 0.202 |
| HMGFLTGNTQGEVNRKTKNQMVNIFLPTTPNPTSGFLLFVPKKDILRLTMTVEEGIKMIISAGMLTPS | 0.0322 |
| HMSSTSISFNDFQKYWLSNDIKSFQLREDKMTVQGSLKNGTAYETVVPSERLFQFIGQHPKD | -0.127 |
| HMSTDDILSSITALRLASVQFQLGQFDPALDSLKLVKEQAWSGAKNILAGDIQLAKGDKEAAKASYQQAQQ | -0.542 |
| HMSTLTGTQRAAVVLMQMSPPNAARVMAQFTDAEAEEIAAEIVRLRKVDPEVAEQIMKDFHEAALSS | -0.645 |
| HMNDEFYAVVRESYAGYALVKPLDEDVGYDILSVSVKNLKVGDIIRLKVKNIKEIYPPEAEVLEVEVLQ | -1.59 |
| HMILALAISSEEDDARIYATYADRLREAYPASARVFEGMVDEEHEHRRRLIDLFQRRFGDTIPLVRREHV | -0.836 |
| HMPVGVPGVVYNTDSLNVRKGAGTNYDIVSKLKRGSVIEVLEQTAVDGTVWGRIAEGWVNMEYVSL | -0.363 |
| HMKQLQIPYSFAKRHGVLLRYEGDQAFIVRRDNTSMLALQEARRLLGHPAHYLLYSEQEFNQLLSASFA | -0.455 |
| HMPAQPEPYNNLARLYSAQGKLDQAASLLRAGLYTDPAYRALFDNLTRIYAEQAARSLSAALD | -0.879 |
| HMAFEITSAERTRLEDIARKGLTAYTAEWKQLPASEKKALNKTGLQDFLKSMAADADSAREEEA | 0.0412 |
| HMAEDDAVQKAVREAVAESADAVADYKAGSERALNFIVGVVMKKTRGKASPGEVHRLVKAEVEK | 0.143 |
| HMWNTADDIKEAIWKLIQSEDPKKPYSDLKISQLLLEKEMKISRRTVAKYRKEMGILGTYSRK | 0.23 |
| HMHNNTITLNKKTYVYTASGKKMSKYLGYTYINKGTTLNYYGTKNIKGKTFYYIGDHAYVNAANVGKVTN | ≥ 0.43 |
| HMSDPELAIPRVVGLSGNDAQAALVKAGFSAVTVVTVKNSEVTSEQVTHVVPAEGAKAKASTPVTVVVSSS | 0.15 |
| HMEEKTMNLPPSAKLVYKILSYEGNLTQKEIINMTYLPERTVRHALELLLGKRLITRQAYLNDARQSVYG | -0.265 |
